Results: US20060257938A1, “Method of screening for drugs that block ligand binding to a lipid binding protein” (priority 2005, published 2006)
Numbering of substitutions follows the chain as printed. Names may count otherwise.

B1: L2P1E6: FABP probe, substitutions M18L A73L vs SEQ ID NO: 2 (protein, listed as Rattus norvegicus)
chain: AFDGTWKVDRNENYEKFLEKMGINVVKRKLGAHDNLKLTITQEGNKFTVKESSNFRNIDVVFELGVDFAYSLLDGTELTGTWTMEGNKLVGKFKRVDNGKELIAVREISGNELIQTYTYEGVEAKRIFKKE
modifications: PEPTIDE (1)...(131) wild-type rat intestinal fatty acid binding protein
B2: L2P4C5: FABP probe, substitutions M18I G31Y vs SEQ ID NO: 2 (protein, listed as Rattus norvegicus)
chain: B1 chain with L18I, G31Y, L73A
modifications: PEPTIDE (1)...(131) wild-type rat intestinal fatty acid binding protein
B3: L2P12G9: FABP probe, substitutions M18L A73V vs SEQ ID NO: 2 (protein, listed as Rattus norvegicus)
chain: B1 chain with L73V
modifications: PEPTIDE (1)...(131) wild-type rat intestinal fatty acid binding protein
B4: L2P21G3: FABP probe, substitutions M18I G31M F55M vs SEQ ID NO: 2 (protein, listed as Rattus norvegicus)
chain: B1 chain with L18I, G31M, F55M, L73A
modifications: PEPTIDE (1)...(131) wild-type rat intestinal fatty acid binding protein
B5: L2P8B8: FABP probe, substitution A73F vs SEQ ID NO: 2 (protein, listed as Rattus norvegicus)
chain: B1 chain with L18M, L73F
modifications: PEPTIDE (1)...(131) wild-type rat intestinal fatty acid binding protein
B6: L2P9E12: FABP probe, substitutions M18L F55L A73I vs SEQ ID NO: 2 (protein, listed as Rattus norvegicus)
chain: B1 chain with F55L, L73I
modifications: PEPTIDE (1)...(131) wild-type rat intestinal fatty acid binding protein
B7: L2P7F4: FABP probe, substitutions M18V G31V A73I vs SEQ ID NO: 2 (protein, listed as Rattus norvegicus)
chain: B1 chain with L18V, G31V, L73I
modifications: PEPTIDE (1)...(131) wild-type rat intestinal fatty acid binding protein
B8: L2P22H10: FABP probe, substitutions M18I F55G A73M vs SEQ ID NO: 2 (protein, listed as Rattus norvegicus)
chain: B1 chain with L18I, F55G, L73M
modifications: PEPTIDE (1)...(131) wild-type rat intestinal fatty acid binding protein
B9: L2P16A3: FABP probe, substitutions M18I G31L A73G vs SEQ ID NO: 2 (protein, listed as Rattus norvegicus)
chain: B1 chain with L18I, G31L, L73G
modifications: PEPTIDE (1)...(131) wild-type rat intestinal fatty acid binding protein
B10: L2P23G7: FABP probe, substitutions M18V G31F F55L vs SEQ ID NO: 2 (protein, listed as Rattus norvegicus)
chain: B1 chain with L18V, G31F, F55L, L73A
modifications: PEPTIDE (1)...(131) wild-type rat intestinal fatty acid binding protein
B11: L2P8F11: FABP probe, substitution A73I vs SEQ ID NO: 2 (protein, listed as Rattus norvegicus)
chain: B1 chain with L18M, L73I
modifications: PEPTIDE (1)...(131) wild-type rat intestinal fatty acid binding protein
B12: 14V 18L 73V 117A 72A (protein, listed as Rattus norvegicus)
chain: B1 chain with Y14V, L72A, L73V, Y117A
modifications: PEPTIDE (1)...(131) wild-type rat intestinal fatty acid binding protein
B13: 21W 78I 72A (protein, listed as Rattus norvegicus)
chain: B1 chain with L18M, M21W, L72A, L73A, L78I
modifications: PEPTIDE (1)...(131) wild-type rat intestinal fatty acid binding protein
B14: 21W 78A 102V 72A (protein, listed as Rattus norvegicus)
chain: B1 chain with L18M, M21W, L72A, L73A, L78A, L102V
modifications: PEPTIDE (1)...(131) wild-type rat intestinal fatty acid binding protein
B15: 73I 72A (protein, listed as Rattus norvegicus)
chain: B1 chain with L18M, L72A, L73I
modifications: PEPTIDE (1)...(131) wild-type rat intestinal fatty acid binding protein
B16: 18L 55L 73I 72A (protein, listed as Rattus norvegicus)
chain: B1 chain with F55L, L72A, L73I
modifications: PEPTIDE (1)...(131) wild-type rat intestinal fatty acid binding protein
B17: 18L 73L 72A (protein, listed as Rattus norvegicus)
chain: B1 chain with L72A
modifications: PEPTIDE (1)...(131) wild-type rat intestinal fatty acid binding protein
B18: 21W 78F 72A (protein, listed as Rattus norvegicus)
chain: B1 chain with L18M, M21W, L72A, L73A, L78F
modifications: PEPTIDE (1)...(131) wild-type rat intestinal fatty acid binding protein

test: Probe fluorescence ratio response to linoleic acid relative to ADIFAB2; type: binding; settings: Table 5
Procedure, shortened: (§1)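 Each fatty acid's response was expressed relative to ADIFAB2, the rI-FABP-L72A probe, as ΔR/ΔRreference. ΔR is the change in the background-corrected two-wavelength intensity ratio R=Fλ1/Fλ2 from its analyte-free baseline R0. Emission was read near about 420-480 nm for unbound and about 495-580 nm for FFA-bound probe.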

| Molecule | ΔR/DRAΔ2 LA |
| --- | --- |
| B1 | 0.1 |
| B2 | 2.8 |
| B3 | −0.1 |
| B4 | 1.1 |
| B5 | 1.2 |
| B6 | 0.7 |
| B7 | 1.1 |
| B8 | 1.1 |
| B9 | 1.1 |
| B10 | 1.0 |
| B11 | 0.0 |

same assay, conditions: response relative to ADIFAB2

| Molecule | DR/DR LA |
| --- | --- |
| B12 | 0.557 |
| B13 | 4.381 |
| B14 | 2.749 |
| B15 | 0.039 |
| B16 | −0.129 |
| B17 | 0.019 |
| B18 | 1.597 |

test: Probe fluorescence ratio response to stearic acid relative to ADIFAB2; type: binding; settings: Table 5
Procedure, shortened: as §1

| Molecule | ΔR/DRAΔ2 SA |
| --- | --- |
| B1 | 0.2 |
| B2 | 1.0 |
| B3 | 0.4 |
| B4 | 0.3 |
| B5 | 0.4 |
| B6 | 0.4 |
| B7 | 0.3 |
| B8 | 0.4 |
| B9 | 0.3 |
| B10 | 0.4 |
| B11 | 0.3 |

same assay, conditions: response relative to ADIFAB2

| Molecule | DR/DR SA |
| --- | --- |
| B12 | 0.105 |
| B13 | 3.396 |
| B14 | 3.092 |
| B15 | 0.242 |
| B16 | 0.423 |
| B17 | 0.254 |
| B18 | 1.161 |

test: Probe fluorescence ratio response to palmitoleic acid relative to ADIFAB2; type: binding; settings: Table 5
Procedure, shortened: as §1

| Molecule | ΔR/DRAΔ2 POA |
| --- | --- |
| B1 | 0.1 |
| B2 | 2.6 |
| B3 | 0.0 |
| B4 | 1.4 |
| B5 | 2.4 |
| B6 | 0.8 |
| B7 | 1.3 |
| B8 | 1.2 |
| B9 | 1.4 |
| B10 | 1.4 |
| B11 | 0.1 |

same assay, conditions: response relative to ADIFAB2

| Molecule | DR/DR POA |
| --- | --- |
| B12 | 0.597 |
| B13 | 3.284 |
| B14 | 1.585 |
| B15 | 0.117 |
| B16 | −0.030 |
| B17 | 0.092 |
| B18 | 1.217 |

test: Probe fluorescence ratio response to linolenic acid relative to ADIFAB2; type: binding; settings: Table 5
Procedure, shortened: as §1

| Molecule | ΔR/DRAΔ2 LNA |
| --- | --- |
| B1 | 0.1 |
| B2 | 2.8 |
| B3 | 0.0 |
| B4 | 1.4 |
| B5 | 1.8 |
| B6 | 0.9 |
| B7 | 1.5 |
| B8 | 1.3 |
| B9 | 1.5 |
| B10 | 1.2 |
| B11 | 0.1 |

same assay, conditions: response relative to ADIFAB2

| Molecule | DR/DR LNA |
| --- | --- |
| B12 | 0.624 |
| B13 | 4.024 |
| B14 | 1.628 |
| B15 | 0.099 |
| B16 | −0.044 |
| B17 | 0.090 |
| B18 | 1.694 |

test: Probe fluorescence ratio response to arachidonic acid relative to ADIFAB2; type: binding; settings: Table 5; Arachidonic acid
Procedure, shortened: as §1

| Molecule | ΔR/DRAΔ2 AA |
| --- | --- |
| B1 | 0.4 |
| B2 | 2.2 |
| B3 | 0.5 |
| B4 | 1.0 |
| B5 | 1.1 |
| B6 | 0.6 |
| B7 | 0.8 |
| B8 | 0.9 |
| B9 | 1.0 |
| B10 | 0.9 |
| B11 | 0.4 |

same assay, conditions: arachidonic acid; response relative to ADIFAB2

| Molecule | DR/DR AA |
| --- | --- |
| B12 | 0.926 |
| B13 | 6.322 |
| B14 | 4.923 |
| B15 | 0.408 |
| B16 | 0.443 |
| B17 | 0.441 |
| B18 | 4.264 |

test: Probe fluorescence ratio response to palmitic acid relative to ADIFAB2; type: binding; settings: Table 5
Procedure, shortened: as §1

| Molecule | ΔR/DRAΔ2 PA |
| --- | --- |
| B1 | 0.0 |
| B2 | 1.8 |
| B3 | 0.0 |
| B4 | 1.1 |
| B5 | 1.1 |
| B6 | 1.1 |
| B7 | 1.3 |
| B8 | 1.1 |
| B9 | 1.1 |
| B10 | 1.0 |
| B11 | 0.0 |

same assay, conditions: response relative to ADIFAB2

| Molecule | DR/DR PA |
| --- | --- |
| B12 | 0.249 |
| B13 | 2.759 |
| B14 | 1.721 |
| B15 | 0.015 |
| B16 | 0.007 |
| B17 | −0.004 |
| B18 | 0.851 |

test: Probe fluorescence ratio response to oleic acid relative to ADIFAB2; type: binding; settings: Table 5
Procedure, shortened: as §1

| Molecule | ΔR/DRAΔ2 OA |
| --- | --- |
| B1 | 0.1 |
| B2 | 2.1 |
| B3 | 0.0 |
| B4 | 0.6 |
| B5 | 0.6 |
| B6 | 0.6 |
| B7 | 0.6 |
| B8 | 0.6 |
| B9 | 0.6 |
| B10 | 0.6 |
| B11 | 0.0 |

same assay, conditions: response relative to ADIFAB2

| Molecule | DR/DR OA |
| --- | --- |
| B12 | 0.307 |
| B13 | 4.703 |
| B14 | 3.261 |
| B15 | 0.045 |
| B16 | 0.021 |
| B17 | 0.021 |
| B18 | 1.843 |
